Laboratory results published in patent publication US20230265151A1, “GIP/GLP1 CO-AGONIST COMPOUNDS” (priority 2020, published 2023).
Changes are numbered by the printed parent chain.

Legend:
Assay in all cases: cell-based or functional assay
[1] = target: human glucagon-like peptide-1 (GLP-1) receptor (human) (UniProt P43220)
[2] = target: T1, human glucose-dependent insulinotropic polypeptide (GIP) receptor (human) (UniProt P48546)
T1 sequence (looked up): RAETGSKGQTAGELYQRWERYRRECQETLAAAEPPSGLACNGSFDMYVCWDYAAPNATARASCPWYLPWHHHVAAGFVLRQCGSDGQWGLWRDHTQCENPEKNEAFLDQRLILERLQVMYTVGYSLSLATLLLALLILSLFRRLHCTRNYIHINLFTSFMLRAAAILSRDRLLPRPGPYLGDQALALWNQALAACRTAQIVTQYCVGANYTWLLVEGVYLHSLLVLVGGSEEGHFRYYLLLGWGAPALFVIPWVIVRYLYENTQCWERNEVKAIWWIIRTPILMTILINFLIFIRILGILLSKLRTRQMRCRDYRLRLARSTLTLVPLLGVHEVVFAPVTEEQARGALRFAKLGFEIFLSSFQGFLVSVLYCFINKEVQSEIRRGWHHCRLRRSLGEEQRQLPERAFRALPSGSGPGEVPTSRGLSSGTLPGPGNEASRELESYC

[3] = target: human glucagon receptor (human) (UniProt P47871)
human GIP receptor = target: T2, human GIP receptor (human, UniProt P48546 22-466)
T2 sequence (looked up): T1 sequence (looked up)

human glucagon receptor = human glucagon receptor (human, UniProt P47871 26-477)
human GLP-1 receptor = human GLP-1 receptor (human, UniProt P43220 24-463)

B1: Example 230 (peptide)
peptide: YXEGTXTSDYXIXLDXKAQXKFIXXLIEGGPSSGAPPPS
modifications: Y-Aib-EGT-αMeF(2F)-TSDY-Aib-I-αMeL-LD-Orn-K((2-[2-(2-Amino-ethoxy)-ethoxy]-acetyl)2-(γ-Glu)-CO-(CH2)12-CO2H)AQ-Aib-K((2-[2-(2-Amino-ethoxy)-ethoxy]-acetyl)2-(γ-Glu)-CO-(CH2)12-CO2H)FI-(D-Glu)-αMeY-LIEGGPSSGAPPPS-NH2
cAMP EC50 [1]: 0.726 nM | cAMP Emax [1]: 90.3% | cAMP EC50 [2]: 0.0199 nM | cAMP Emax [2]: 105% | cAMP EC50 [3]: > 9950 nM | cAMP EC50 (1.0% HSA) (human GIP receptor): 2.57 nM | cAMP Emax (1.0% HSA) (human GIP receptor): 85.8% | cAMP EC50 (1.0% HSA) (human glucagon receptor): > 9950 nM | cAMP EC50 (1.0% HSA) (human GLP-1 receptor): 49.7 nM

B2: Example 244 (peptide)
peptide: B1 peptide with Y10X, K21E, E28K
modifications: Y-Aib-EGT-αMeF(2F)-TSD-4Pal-Aib-I-αMeL-LD-Orn-K((2-[2-(2-Amino-ethoxy)-ethoxy]-acetyl)2-(γ-Glu)-(10-(4-carboxyphenoxy)decanoyl))AQ-Aib-EFI-(D-Glu)-αMeY-LIK((2-[2-(2-Amino-ethoxy)-ethoxy]-acetyl)2-(γ-Glu)-(10-(4-carboxyphenoxy)decanoyl))GGPSSGAPPPS-NH2
cAMP EC50 [1]: 2.25 nM | cAMP Emax [1]: 104% | cAMP EC50 [2]: 0.0218 nM | cAMP Emax [2]: 101% | cAMP EC50 [3]: > 9950 nM | cAMP EC50 (1.0% HSA) (human GIP receptor): 0.983 nM | cAMP EC50 (1.0% HSA) (human GLP-1 receptor): 30.8 nM

B3: Example 231 (peptide)
peptide: B1 peptide with K21E, E28K
modifications: Y-Aib-EGT-αMeF(2F)-TSDY-Aib-I-αMeL-LD-Orn-K((2-[2-(2-Amino-ethoxy)-ethoxy]-acetyl)2-(γ-Glu)-CO-(CH2)12-CO2H)AQ-Aib-EFI-(D-Glu)-αMeY-LIK((2-[2-(2-Amino-ethoxy)-ethoxy]-acetyl)2-(γ-Glu)-CO-(CH2)12-CO2H)GGPSSGAPPPS-NH2
cAMP EC50 [1]: 1.22 nM | cAMP Emax [1]: 107% | cAMP EC50 [2]: 0.0184 nM | cAMP Emax [2]: 102% | cAMP EC50 [3]: > 9950 nM | cAMP EC50 (1.0% HSA) (human GIP receptor): 2.46 nM | cAMP Emax (1.0% HSA) (human GIP receptor): 85.4% | cAMP EC50 (1.0% HSA) (human glucagon receptor): > 9950 nM | cAMP EC50 (1.0% HSA) (human GLP-1 receptor): 51.8 nM

B4: Example 223 (peptide)
peptide: YXEGTXTSDXSIXLDXIAQXEFIXXLIKGGPSSGAPPPSK
modifications: Y-Aib-EGT-αMeF(2F)-TSD-4Pal-SI-αMeL-LD-Orn-IAQ-Aib-EFI-(D-Glu)-αMeY-LIK((2-[2-(2-Amino-ethoxy)-ethoxy]-acetyl)2-CO-(CH2)12-CO2H)GGPSSGAPPPSK((2-[2-(2-Amino-ethoxy)-ethoxy]-acetyl)2-CO-(CH2)12-CO2H)-NH2
cAMP EC50 [1]: 1.43 nM | cAMP Emax [1]: 94% | cAMP EC50 [2]: 0.0252 nM | cAMP Emax [2]: 103% | cAMP EC50 [3]: > 9950 nM | cAMP EC50 (1.0% HSA) (human GIP receptor): 7.84 nM | cAMP Emax (1.0% HSA) (human GIP receptor): 79.2% | cAMP EC50 (1.0% HSA) (human glucagon receptor): > 9950 nM | cAMP EC50 (1.0% HSA) (human GLP-1 receptor): 90.5 nM | cAMP Emax (1.0% HSA) (human GLP-1 receptor): 115%

B5: Example 229 (peptide)
peptide: B4 peptide
modifications: Y-Aib-EGT-αMeF(2F)-TSD-4Pal-SI-αMeL-LD-Orn-IAQ-Aib-EFI-(D-Glu)-αMeY-LIK((2-[2-(2-Amino-ethoxy)-ethoxy]-acetyl)3-(γ-Glu)-CO-(CH2)12-CO2H)GGPSSGAPPPSK((2-[2-(2-Amino-ethoxy)-ethoxy]-acetyl)3-(γ-Glu)-CO-(CH2)12-CO2H)-NH2
cAMP EC50 [1]: 2.25 nM | cAMP Emax [1]: 94.3% | cAMP EC50 [2]: 0.0253 nM | cAMP Emax [2]: 103% | cAMP EC50 [3]: > 9950 nM | cAMP EC50 (1.0% HSA) (human GIP receptor): 7.35 nM | cAMP Emax (1.0% HSA) (human GIP receptor): 80.5% | cAMP EC50 (1.0% HSA) (human glucagon receptor): > 9950 nM | cAMP EC50 (1.0% HSA) (human GLP-1 receptor): 135 nM | cAMP Emax (1.0% HSA) (human GLP-1 receptor): 99%
